Measured values: US20240425571A1, “GLYCOPROTEIN A REPETITIONS PREDOMINANT (GARP)-BINDING ANTIBODIES AND USES THEREOF” (OHIO STATE INNOVATION FOUNDATION, priority 2021, published 2024)
Changes are numbered by the printed parent chain.

T1: antigen (Homo sapiens, UniProt Q14392)
T1 sequence (Q14392 20-662): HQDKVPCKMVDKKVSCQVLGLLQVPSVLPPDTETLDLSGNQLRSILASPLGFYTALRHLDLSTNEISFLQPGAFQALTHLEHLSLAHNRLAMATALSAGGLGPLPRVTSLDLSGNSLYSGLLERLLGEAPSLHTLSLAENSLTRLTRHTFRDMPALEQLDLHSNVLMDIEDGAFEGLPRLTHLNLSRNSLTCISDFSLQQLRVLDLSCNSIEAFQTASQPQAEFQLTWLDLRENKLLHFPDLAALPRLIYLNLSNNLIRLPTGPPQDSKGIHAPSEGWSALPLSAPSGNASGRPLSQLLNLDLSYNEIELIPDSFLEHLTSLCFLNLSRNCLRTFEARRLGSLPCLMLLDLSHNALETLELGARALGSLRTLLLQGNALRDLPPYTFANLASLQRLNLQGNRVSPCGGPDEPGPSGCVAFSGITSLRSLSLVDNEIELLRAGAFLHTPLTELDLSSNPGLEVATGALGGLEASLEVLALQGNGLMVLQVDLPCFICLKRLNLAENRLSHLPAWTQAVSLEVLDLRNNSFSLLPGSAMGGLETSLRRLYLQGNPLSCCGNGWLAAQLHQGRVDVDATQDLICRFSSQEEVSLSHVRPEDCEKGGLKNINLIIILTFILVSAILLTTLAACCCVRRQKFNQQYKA

B1: H1L2: humanized PIIO-1 antibody, VH SEQ ID NO: 20 and VL SEQ ID NO: 24 (antibody, V domains shown)
VH: QVQLQESGPGLVKPSQTLSLTCTVSGYSITSDYAWNWIRQFPGNKLEWMGYISYSGSTSYTPSLKSRVTISRDTSKNHFSLKLSSVTAADTAVYYCAKSGGDYYGSSSYWYFDVWGQGTMVTVSS
VL: DIVLTQSPSSLAVSLGERVTMNCKSSQSLLNSRSQKNYLAWYQQKPGQPPKLLIYGASTRGSGVPDRFSGSGSGTDFTLTISSVQAEDVAVYYCQNDHSYPFTFGQGTKLEIKR
B2: H2L1: humanized PIIO-1 antibody, VH SEQ ID NO: 21 and VL SEQ ID NO: 23 (antibody, V domains shown)
VH: B1 VH with V68I, S80F
VL: B1 VL with V19A, V84L

Experiments:
[1] = system: Ag(−) cell; assay: FACS analysis with Ag(−) cell (non-specific binding); details: 5 ug/ml
Procedure: Methods—FACS analysis. Cell preparation: Cell were harvested and washed with PBS+2% FBS for one time. Cell density was adjusted to 1.5E6/mL in PBS/2% FBS. Cell were added to 96 U-bottom well plates at 100 μL/well. Antibody samples preparation: Antibody in supernatant was adjusted to 10 μg/mL using PBS+2% FBS, with serial 5 times dilution performed to obtain 3 concentrations of antibody solution. The blank was PBS+2% FBS. Antibody solutions were placed into 96 U-bottom well plates at 100 μL/well in the same arranging pattern as the cell preparation. Incubation: The antibody samples (100 μl) were mixed with the cells (100 μl), and incubated at RT for 1 h, then centrifuged the plate for 3 min at 1000 rpm (swing bucket). The supernatant was pipetted and the cells were washed with PBS+2% FBS for one time. Incubation with the secondary antibody: Cy3-Conjugated AffiniPure Goat Anti-Human IgG was diluted 250× by PBS+2% FBS, and added to the 96 U-bottom well plate with 100 μl/well, then incubated at RT for 30 min. After that, the plate was centrifuged at 1000 rpm for 3 min and the supernatant was pipetted out. The cell was washed with PBS+2% FBS twice. Cells were re-suspended in 200 μl PBS+2% FBS and analyzed on FACS. The MFI of total live cells were used as binding signal.
Methods—heat treatment. Culture supernatant was serial diluted to the indicated concentration of IgG with cell media and heated at 70° C. for 5 mins on a PCR machine, then quickly cooled down to room temperature.

[2] = target: T1, antigen; assay: Label-free kinetic binding assay on Gator; details: for Rmax / koff / kon: IgG 2 μg/ml on anti-human Fc probes, antigen 5 μg/ml
Procedure: Affinity measurement. Label-free kinetic binding assay was performed on Gator (similar to Octet).
Methods. Affinity was measured on Gator (ProbeLife, Palo Alto). In brief, the purified IgG sample was diluted in K buffer at 2 μg/ml, and the antigen was diluted at 5 μg/ml. The antibody-loaded anti-human Fc probes were dipped in antigen wells for 5 mins and then moved to K buffer wells for 5 mins. In the whole process, the sample plate was shaken at 1,000 rpm. The data analysis was carried out using Gator software (ProbeLife).

[3] = Thermostability by DSF/SLS (UNcle); type: physicochemical; details: for SLS Tagg 266: SLS at 266 nm; for SLS Tagg 473: SLS at 473 nm
Procedure: Developability Analysis for PIIO-1 humanization leads. Antibodies were analyzed for thermostability by DSF/SLS. Samples were submitted to the UNcle system (Unchained Labs) for analysis. A temperature ramp of 1° C./min was performed with monitoring from 20° C. to 95° C. for DSF and SLS. UNcle measures SLS at 266 nm and 473 nm. Tm and Tagg were calculated and analyzed by using the UNcle Analysis Software. DSF: Differential scanning fluorimetry; SLS: Static light scattering; Tm: Melting temperature; Tagg 266: Thermal aggregation when SLS at 266 nm; Tagg 473: Thermal aggregation when SLS at 473 nm. A summary is shown below in Table F:
IgG is a multi-domain structure and each domain has its own melting Temperature (Tm). […] Fabs have Tm in a wide range, generally about 50-85° C., due to large sequence variation. Therefore, the Tm values measured by various analytical techniques are usually “apparent” transition temperatures rather than the real Tm for each domain. In the case of whole IgG, there are often 2-3 Tm values in DSF measurement, presenting some challenge in determining which Tm represents which domain.
Tagg is the temperature at which SLS starts to detect aggregation particles. Tagg266 measures SLS at 266 nm, which is more sensitive and suitable to detect smaller aggregation particles. Tagg473 measures SLS at 473 nm and is better to detect larger particles.

[4] = Aggregation potential by DLS analysis; type: physicochemical; details: for Peak 1 Mass / Peak 1 Mode Diameter / Peak 1 PDI / Peak 2 Mass: DLS at 25° C.
Procedure: Aggregation potential by DLS analysis. DLS was performed on UNcle system (Unchained Labs). DLS was measured at 25° C. Data was calculated and analyzed using UNcle Analysis Software. DLS: Dynamic light scattering PDI: Polydispersity index, PDI=(standard deviation/mean hydrodynamic radius).
Dynamic Light Scattering (DLS) is used to detect aggregation in the antibody sample. “Mode diameter” is protein particle diameter and “mass percentage” is the amount of each size fraction in percentage. “PDI” is Polydispersity Index; the higher this index, the more polydispersity in the sample is. […] Peak 1 is the major peak and represents the IgG monomer. The inventor takes “Peak 1 mass percentage” and “PDI” value into consideration in selecting a lead.

[5] = Reducing CE-SDS (heterogeneity); type: physicochemical; details: for OTHER (%) / PK#1 (%) / PK#2 (%) / PK#3 (%): Reducing-CE-SDS
Procedure: (§1) Analysis of the heterogeneity by Capillary Electrophoresis (CE). The sample was prepared in reducing and non-reducing labeling buffer before being submitted to the CE analysis. A summary of the Reducing-CE-SDS and Non-Reducing-CE-SDS results are shown in FIG. 13A/Table H and FIG. 13B/Table I, respectively: […]

[6] = Non-reducing CE-SDS (heterogeneity); type: physicochemical
Procedure: as §1

[7] = system: Baculovirus; assay: Baculovirus (BV) ELISA for non-specific binding
Procedure: Baculovirus (BV) ELISA was employed as a preliminary assay to evaluate antibody's potential nonspecific binding risk.
In Baculovirus (BV) ELISA, the inventor used Rituxan Mab as reference. […] If a clone only has binding on BV, but not on 293 cells, it will be considered as having a low risk of non-specific binding.
Methods—Baculovirus ELISA. Plates are coated with 50 μl of 1:500 diluted Baculovirus sample in PBS in each well. Plates are kept at 4° C. for overnight. The plates are washed with 300 μL of wash buffer ×3 and 200 μl blocking buffer (1% BSA) is added at RT for 60 min. Plates are washed with 300 μl of wash buffer ×3 and 100 μl of diluted Abs are added at different concentrations/well, followed by RT incubation for 1 hr. Plates are washed with 300 μl of wash buffer ×6 and 100 μl of 1:5000 HRP conjugated second Ab in PBS is added followed by RT incubation for 1 hr. The plates are washed with 300 μl of wash buffer ×6. Developing buffer is added and the plate is read.

[8] = ramp 1° C./min, 20° C. to 95° C.

Molecule	FACS with Ag(−) cell (MFI) ([1]; Heating)	FACS with Ag(−) cell (MFI) ([1]; Non-Heating)	KD value compared with the chimeric [2]	Rmax [2]	koff [2]	kon [2]	SLS Tagg 266 [3]	SLS Tagg 473 [3]	DSF TM2 [3, 8]	DSF Tm1 [3, 8]	comparison of humanized antibodies by Table G [4]	Peak 1 Mass [4]	Peak 1 Mode Diameter [4]	Peak 1 PDI [4]	Peak 2 Mass [4]	OTHER (%) [5]	PK#1 (%) [5]	PK#2 (%) [5]	PK#3 (%) [5]	Main Peak (%) [6]	further results
B1	3.35	3.24	same KD value to the chimeric	0.885	0.000813	9.98E+04	78.8 °C	79.3 °C	76.7 °C	70.0 °C	superior to huPIIO-1VH1VL1	99.94%	9.68 nm	0.361	0%	0.9%	1.4%	29.1%	68.7%	97.6%	thermostability compared with parental 4D3 chimeric antibody (Table F) [3]: superior thermostability over the parental 4D3 chimeric antibody; aggregation risk ([3]; from Tagg266 and Tagg473 in SLS assay): very low aggregation risk; DSF Tm3 [3, 8]: 87.5 °C; PDI compared with WT ([4]; listed as VH1VL2): slightly higher PDI than that of the chimeric clone; homogeneity (Table H) [5]: superior homogeneity versus clone huPIIO-1VH2VL1; OTHER (%) [6]: 2.4%; BV ELISA with purified IgG, raw BV binding data ([7]; Ab. Conc. 0.15625 ug/ml): 15.6; BV ELISA with purified IgG, raw BV binding data ([7]; Ab. Conc. 0.3125 ug/ml): 15.4; BV ELISA with purified IgG, raw BV binding data ([7]; Ab. Conc. 0.625 ug/ml): 23.5; BV ELISA with purified IgG, raw BV binding data ([7]; Ab. Conc. 1.25 ug/ml): 26.6; BV ELISA with purified IgG, raw BV binding data ([7]; Ab. Conc. 2.5 ug/ml): 39.6; BV ELISA with purified IgG, raw BV binding data ([7]; Ab. Conc. 5 ug/ml): 38.1; BV ELISA with purified IgG, raw BV binding data ([7]; Ab. Conc. 10 ug/ml): 102.3; BV ELISA with purified IgG, raw BV binding data ([7]; Ab. Conc. 20 ug/ml): 253.4; BV-binding in words ([7]; purified antibodies, Rituxan as reference): a bit higher signal
B2	3.29	3.23	same KD value to the chimeric	0.756	0.000806	1.00E+05	73.7 °C	74.7 °C	83.2 °C	69.9 °C	superior to huPIIO-1VH1VL1	100%	9.68 nm	0.141	0%	2.7%	21.7%	6.9%	68.7%	89.1%	OTHER (%) [6]: 10.8%; BV ELISA with purified IgG, raw BV binding data ([7]; Ab. Conc. 0.15625 ug/ml): 14.5; BV ELISA with purified IgG, raw BV binding data ([7]; Ab. Conc. 0.3125 ug/ml): 14.6; BV ELISA with purified IgG, raw BV binding data ([7]; Ab. Conc. 0.625 ug/ml): 15.6; BV ELISA with purified IgG, raw BV binding data ([7]; Ab. Conc. 1.25 ug/ml): 18.3; BV ELISA with purified IgG, raw BV binding data ([7]; Ab. Conc. 2.5 ug/ml): 17.8; BV ELISA with purified IgG, raw BV binding data ([7]; Ab. Conc. 5 ug/ml): 30.8; BV ELISA with purified IgG, raw BV binding data ([7]; Ab. Conc. 10 ug/ml): 82.7; BV ELISA with purified IgG, raw BV binding data ([7]; Ab. Conc. 20 ug/ml): 161.0
